Results: the supplement of paper PMC10126150
± gives the standard deviation of the averaged measurements.

Test system: ATP
Experiment: switch fluorescence ratio, 500 uM ATP over buffer (Cy3 cluster intensity, sum of 5 cycles each) (fold (ratio)); higher = stronger signal-on switching upon ATP binding; sequences stand for … in TCGTCGGCAGCGTCAGATGTGTATAAGAGACAGTTTTTTTTTTTTTTTTTTTTTTTTT…TC
Details: aptamer strand: ATP DNA aptamer (quencher-CACCTGGGGGAGTATTGCGGAGGAAGG + anchor), 100 nM annealed; ATP concentration: 500 uM
Summary of the method: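 Switching-strand clusters labelled with Cy3 on a modified Illumina MiSeq flow-cell were annealed to 100 nM quencher-labelled ATP aptamer, imaged in selection buffer, and re-imaged after 15 min with 500 uM ATP at 22 °C. This was done over five cycles with NaOH stripping and re-annealing in between. The fluorescence ratio is summed target-cycle over summed buffer-cycle Cy3 intensity per cluster, averaged per switch-domain sequence, excluding clusters outside 100-1000 RFU.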
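Also: ATP exposure 15 min at 22 °C before imaging.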

Row | Sequence | switch fluorescence ratio
1 | AGGTAGAGTG | 0.948 ± 0.038
2 | AGGTAGGCCA | 0.951 ± 0.026
3 | AGGTAGGCCT | 0.991 ± 0.025
4 | AGGTAGGTAA | 1.03 ± 0.054
5 | AGGTAGTGGG | 0.974 ± 0.029
6 | AGGTAGTGTC | 1.03 ± 0.023
7 | AGGTAGTGTG | 0.989 ± 0.014
8 | AGGTATAAGC | 0.994 ± 0.043
9 | AGGTATCAAT | 1 ± 0.053
10 | AGGTATGGCC | 1.04 ± 0.091
11 | AGGTATGGTT | 0.984 ± 0.024
12 | AGGTCAACCG | 1.02 ± 0.02
13 | AGGTCACAG | 1 ± 0.03
14 | AGGTCCGGTA | 1.01 ± 0.011
15 | AGGTCGCCTG | 1.031 ± 0.0069
16 | AGGTCGCGGT | 0.994 ± 0.025
17 | AGGTCGGACA | 1.006 ± 0.0094
18 | AGGTCGGGGA | 1.05 ± 0.056
19 | AGGTCGGTCT | 0.995 ± 0.058
20 | AGGTCGTTTT | 0.991 ± 0.027
21 | AGGTCTACTA | 1.05 ± 0.059
22 | AGGTGAAGGG | 1.02 ± 0.018
23 | AGGTGAGGGT | 1.022 ± 0.0047

Row | Sequence | switch fluorescence ratio
24 | AGGTGAGGTA | 1 ± 0.019
25 | AGGTGATAGG | 0.9825 ± 0.0059
26 | AGGTGCATAC | 1.45 ± 0.32
27 | AGGTGCCAGG | 1.07 ± 0.036
28 | AGGTGGAAAC | 1.01 ± 0.048
29 | AGGTGGGCAG | 0.984 ± 0.018
30 | AGGTGGGGAG | 0.998 ± 0.041
31 | AGGTGGGTG | 1.04 ± 0.1
32 | AGGTGGTCTG | 0.9885 ± 0.0047
33 | AGGTGTAGCA | 1.02 ± 0.051
34 | AGGTGTGAGA | 1.06 ± 0.044
35 | AGGTGTGTTG | 0.984 ± 0.034
36 | AGGTTAAGTT | 0.989 ± 0.021
37 | AGGTTAGAAG | 1.006 ± 0.0014
38 | AGGTTAGCGT | 0.9946 ± 0.0013
39 | AGGTTAGGG | 1 ± 0.064
40 | AGGTTAGGTG | 1.42 ± 0.34
41 | AGGTTAGTAG | 0.973 ± 0.0052
42 | AGGTTAGTCG | 1.01 ± 0.032
43 | AGGTTATTTT | 0.992 ± 0.04
44 | AGGTTCACTT | 0.998 ± 0.025
45 | AGGTTCATTG | 0.975 ± 0.021
46 | AGGTTCCTAG | 0.9775 ± 0.0049

Row | Sequence | switch fluorescence ratio
47 | AGGTTCGG | 0.9937 ± 0.0069
48 | AGGTTCTCGG | 0.967 ± 0.026
49 | AGGTTGAAGT | 0.988 ± 0.011
50 | AGGTTGCGAG | 0.989 ± 0.019
51 | AGGTTGGATC | 0.995 ± 0.088
52 | AGGTTGGCAA | 1.07 ± 0.14
53 | AGGTTGGTAA | 0.969 ± 0.01
54 | AGGTTTAATT | 1.01 ± 0.015
55 | AGGTTTGATC | 1.006 ± 0.0096
56 | AGGTTTTTAT | 1.06 ± 0.16
57 | AGGTTTTTGG | 0.963 ± 0.012
58 | AGGTTTTTTG | 0.995 ± 0.016
59 | AGTAAAAATG | 0.982 ± 0.027
60 | AGTAAAAGTT | 0.989 ± 0.052
61 | AGTAAAGATT | 0.9995 ± 0.0041
62 | AGTAAAGGCC | 1.02 ± 0.08
63 | AGTAAAGTCT | 1.04 ± 0.035
64 | AGTAAATTTA | 1.001 ± 0.0046
65 | AGTAAGAGGG | 1.01 ± 0.012
66 | AGTAAGGGGC | 0.98 ± 0.019
67 | AGTAAGGTTG | 0.961 ± 0.054
68 | AGTAAGTTGG | 0.967 ± 0.022
69 | AGTAATATAT | 0.976 ± 0.028

Row | Sequence | switch fluorescence ratio
70 | AGTAATGTGC | 0.996 ± 0.022
71 | AGTACCATTG | 0.997 ± 0.015
72 | AGTACGCAAG | 1.12 ± 0.039
73 | AGTACGTGCG | 0.9781 ± 0.0081
74 | AGTACTAAAG | 1.01 ± 0.033
75 | AGTAGAAGAT | 0.9552 ± 0.0071
76 | AGTAGCGTCG | 0.985 ± 0.048
77 | AGTAGGAGCT | 0.962 ± 0.026
78 | AGTAGGCCTA | 1.04 ± 0.025
79 | AGTAGGCGGT | 0.993 ± 0.023
80 | AGTAGGGGCG | 1.03 ± 0.033
81 | AGTAGGGGGC | 1 ± 0.035
82 | AGTAGGGGGG | 0.988 ± 0.033
83 | AGTAGTCGTC | 0.99 ± 0.058
84 | AGTAGTGAGG | 0.979 ± 0.017
85 | AGTAGTTCGG | 1.019 ± 0.0075
86 | AGTAGTTGAA | 0.988 ± 0.044
87 | AGTAGTTTCG | 0.983 ± 0.037
88 | AGTATAGGGC | 0.989 ± 0.049
89 | AGTATAGTGG | 1.03 ± 0.022
90 | AGTATATGCC | 1 ± 0.034
91 | AGTATATTGG | 0.99 ± 0.044
92 | AGTATGGCGG | 0.975 ± 0.068

Row | Sequence | switch fluorescence ratio
93 | AGTATTGGTG | 0.956 ± 0.026
94 | AGTCAAAAAG | 0.985 ± 0.051
95 | AGTCACAGCT | 0.982 ± 0.032
96 | AGTCACGGGT | 1.03 ± 0.016
97 | AGTCACGTAG | 1.03 ± 0.019
98 | AGTCATCGGC | 1.01 ± 0.056
99 | AGTCATTATG | 1 ± 0.036
100 | AGTCCGATGC | 1.51 ± 0.17
101 | AGTCCGGGTT | 0.991 ± 0.036
102 | AGTCCTCGGA | 0.96685 ± 0.00022
103 | AGTCCTTTT | 0.9882 ± 0.0095
104 | AGTCGACTGT | 0.956 ± 0.02
105 | AGTCGAGGGG | 1.01 ± 0.02
106 | AGTCGCCTGG | 1.003 ± 0.002
107 | AGTCGGAAAG | 1.02 ± 0.015
108 | AGTCGGATGT | 0.989 ± 0.023
109 | AGTCGGGCGC | 0.983 ± 0.051
110 | AGTCGGGGGG | 0.989 ± 0.021
111 | AGTCGGTGCA | 0.9855 ± 0.0013
112 | AGTCGGTTAA | 1.02 ± 0.046
113 | AGTCGTATTT | 0.963 ± 0.019
114 | AGTCGTGCGG | 0.988 ± 0.037
115 | AGTCGTTTGC | 0.938 ± 0.061

Row | Sequence | switch fluorescence ratio
116 | AGTCTAAATA | 1.02 ± 0.02
117 | AGTCTAGAGA | 1.015 ± 0.0095
118 | AGTCTGTAGT | 0.981 ± 0.036
119 | AGTCTTGGTG | 0.973 ± 0.018
120 | AGTGAAAGTT | 1 ± 0.012
121 | AGTGAGCTAT | 1.01 ± 0.018
122 | AGTGAGGTGC | 1.02 ± 0.01
123 | AGTGAGTCGT | 0.961 ± 0.035
124 | AGTGAGTTTT | 1.03 ± 0.024
125 | AGTGATATGA | 0.9882 ± 0.0021
126 | AGTGATTTCG | 1.01 ± 0.043
127 | AGTGCCGTAA | 1.025 ± 0.0056
128 | AGTGCGGACA | 1 ± 0.051
129 | AGTGCGGGGG | 1.036 ± 0.0073
130 | AGTGCGTTTC | 0.996 ± 0.031
131 | AGTGCTAGGG | 1 ± 0.024
132 | AGTGGATTGT | 1.01 ± 0.046
133 | AGTGGCAGTG | 1 ± 0.022
134 | AGTGGGCAGG | 1.04 ± 0.02
135 | AGTGGGGCT | 0.9794 ± 0.0071
136 | AGTGGGGGTT | 0.983 ± 0.019
137 | AGTGGGGTTA | 0.999 ± 0.04
138 | AGTGGTACCG | 0.99 ± 0.024

Row | Sequence | switch fluorescence ratio
139 | AGTGGTGGGA | 1.01 ± 0.033
140 | AGTGGTGGGC | 0.979 ± 0.056
141 | AGTGGTGGTG | 0.9902 ± 0.0039
142 | AGTGGTTTAT | 0.985 ± 0.014
143 | AGTGTACTAG | 1.045 ± 0.0022
144 | AGTGTAGAGC | 0.975 ± 0.017
145 | AGTGTCAGAA | 0.9896 ± 0.0084
146 | AGTGTCCGAT | 0.9895 ± 0.0053
147 | AGTGTCCTGG | 0.986 ± 0.013
148 | AGTGTGACAG | 0.987 ± 0.018
149 | AGTGTGAGGC | 1.03 ± 0.028
150 | AGTGTGGCCT | 1 ± 0.025
151 | AGTGTGGGCA | 0.965 ± 0.026
152 | AGTGTTCGCG | 1 ± 0.015
153 | AGTGTTCGTC | 1.05 ± 0.011
154 | AGTGTTGGGT | 1.02 ± 0.01
155 | AGTGTTTGGT | 0.989 ± 0.021
156 | AGTGTTTTTG | 0.9936 ± 0.0011
157 | AGTTAAAGGT | 0.992 ± 0.023
